# In patent US20230174652A1 (Regeneron, published 2023):
# B1: REGN1979 (bispecific antibody, human IgG4 S228P, kappa)
# heavy 1: EVQLVESGGGLVQPGRSLRLSCVASGFTFNDYAMHWVRQAPGKGLEWVSVISWNSDSIGYADSVKGRFTISRDNAKNSLYLQMHSLRAEDTALYYCAKDNHYGSGSYYYYQYGMDVWGQGTTVTVSSASTKGPSVFPLAPCSRSTSESTAALGCLVKDYFPEPVTVSWNSGALTSGVHTFPAVLQSSGLYSLSSVVTVPSSSLGTKTYTCNVDHKPSNTKVDKRVESKYGPPCPPCPAPPVAGPSVFLFPPKPKDTLMISRTPEVTCVVVDVSQEDPEVQFNWYVDGVEVHNAKTKPREEQFNSTYRVVSVLTVLHQDWLNGKEYKCKVSNKGLPSSIEKTISKAKGQPREPQVYTLPPSQEEMTKNQVSLTCLVKGFYPSDIAVEWESNGQPENNYKTTPPVLDSDGSFFLYSRLTVDKSRWQEGNVFSCSVMHEALHNHYTQKSLSLSLGK
# heavy 2: EVQLVESGGGLVQPGRSLRLSCAASGFTFDDYTMHWVRQAPGKGLEWVSGISWNSGSIGYADSVKGRFTISRDNAKKSLYLQMNSLRAEDTALYYCAKDNSGYGHYYYGMDVWGQGTTVTVASASTKGPSVFPLAPCSRSTSESTAALGCLVKDYFPEPVTVSWNSGALTSGVHTFPAVLQSSGLYSLSSVVTVPSSSLGTKTYTCNVDHKPSNTKVDKRVESKYGPPCPPCPAPPVAGPSVFLFPPKPKDTLMISRTPEVTCVVVDVSQEDPEVQFNWYVDGVEVHNAKTKPREEQFNSTYRVVSVLTVLHQDWLNGKEYKCKVSNKGLPSSIEKTISKAKGQPREPQVYTLPPSQEEMTKNQVSLTCLVKGFYPSDIAVEWESNGQPENNYKTTPPVLDSDGSFFLYSRLTVDKSRWQEGNVFSCSVMHEALHNRFTQKSLSLSLGK
# light: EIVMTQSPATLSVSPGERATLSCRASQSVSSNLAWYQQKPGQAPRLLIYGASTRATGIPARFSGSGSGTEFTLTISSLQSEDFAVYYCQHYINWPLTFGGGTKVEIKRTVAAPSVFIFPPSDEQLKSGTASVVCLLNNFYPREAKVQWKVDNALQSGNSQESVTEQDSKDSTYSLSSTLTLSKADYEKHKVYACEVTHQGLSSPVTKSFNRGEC
# B2: REGN5837 (bispecific antibody, human IgG4, V domains shown)
# VH 1: QVQLQESGPGLVKPSETLSLTCTVSGGSISSYYWSWIRQPPGKGLEWIGYIYYSGITHYNPSLKSRVTISVDTSKIQFSLKLSSVTAADTAVYYCARWGVRRDYYYYGMDVWGQGTTVTVSS
# VH 2: EVQLVQSGAEVKKPGESLKISCKGSGYNFATYWIAWVRQMPGKGLELMGIIYPGDSETTYNPSFQGQVTISADKSISNAYLQWSSLKASDTAMYYCARVGGYCSGTSCHNWFDPWGLGTLVTVSS
# VL: not shown
# notes: also called anti-CD22 x anti-CD28 bispecific antibody; CD22xCD28
# How the values were obtained:
# [1] = target: T1, CD3 molecules on human T cells (human, UniProt P07766 23-207); assay: cell-based or functional assay
# T1 sequence (P07766 23-207): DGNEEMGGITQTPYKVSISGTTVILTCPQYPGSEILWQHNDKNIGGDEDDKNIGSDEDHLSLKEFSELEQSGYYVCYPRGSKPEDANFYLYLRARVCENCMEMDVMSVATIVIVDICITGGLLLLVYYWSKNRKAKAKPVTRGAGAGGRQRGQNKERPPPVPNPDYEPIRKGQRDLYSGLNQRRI
# [2] = target: T1, CD3 molecules on human T cells; assay: cell-based or functional assay; remark: listed apart in the source
# human CD22 = target: T2, human CD22 (human, UniProt P20273 20-847); assay: flow cytometry on Raji/CD80 and CD86 negative cells
# T2 construct: whole, on cells; also called hCD22
# Protocol: Briefly, human CD4+ T-cells, HEK293/hCD20, HEK293/hCD20/hCD22 and Raji/CD80 and CD86 negative cells were resuspended in staining buffer containing D-PBS+2% FBS. […] A negative control sample was included containing no antibody. Cells were washed once with cold staining buffer and incubated for 30-45 minutes with Allophycocyanin (APC) labeled anti-human secondary antibody. After incubation, cells were washed once with cold D-PBS buffer without FBS and incubated with LIVE/DEAD Fixable Green Dead Cell Stain (Invitrogen) according to manufacturer's instructions to discriminate between live and dead cells. Cells were then fixed in BD Cytofix Buffer according to manufacturer's instructions, washed, re-suspended in staining buffer, and analyzed by flow cytometry on an iQue Screener flow cytometer. For EC₅₀ determinations, geometric mean fluorescence intensity (MFI) values were analyzed using a four parameter logistic equation over a 9-point response curve using GraphPad Prism. Fold binding was calculated using the following equation:
binder,measurement,setting,value
B1,"IFN-gamma release, Fold change (CKR), fixed REGN5837 0 (reference)",[1],1 fold
same,"IFN-gamma release, REGN1979 EC50 (M), fixed REGN5837 0",[1],1.82e-10 M
same,"IFN-gamma release, REGN1979 EC50 (M), fixed REGN5837 1.0 X 10^-7",[1],1.17e-10 M
same,"IFN-gamma release, REGN1979 EC50 (M), fixed REGN5837 1.67 X 10^-8",[1],5.34e-11 M
same,"IFN-gamma release, REGN1979 EC50 (M), fixed REGN5837 2.78 X 10^-9",[1],2e-10 M
same,"IFN-gamma release, REGN1979 EC50 (M), fixed REGN5837 4.63 X 10^-10",[1],6.72e-11 M
same,"IFN-gamma release, REGN1979 EC50 (M), fixed REGN5837 7.72 X 10^-11",[1],6.57e-11 M
same,"IL-2 release, Fold change (CKR), fixed REGN5837 0 (reference)",[1],1 fold
same,"IL-2 release, REGN1979 EC50 (M), fixed REGN5837 0",[1],1.25e-10 M
same,"IL-2 release, REGN1979 EC50 (M), fixed REGN5837 1.0 X 10^-7",[1],2.81e-11 M
same,"IL-2 release, REGN1979 EC50 (M), fixed REGN5837 1.67 X 10^-8",[1],1.96e-11 M
same,"IL-2 release, REGN1979 EC50 (M), fixed REGN5837 2.78 X 10^-9",[1],5.18e-12 M
same,"IL-2 release, REGN1979 EC50 (M), fixed REGN5837 4.63 X 10^-10",[1],5.36e-11 M
same,"IL-2 release, REGN1979 EC50 (M), fixed REGN5837 7.72 X 10^-11",[1],3.89e-08 M
same,"IL-4 release, Fold change (CKR), fixed REGN5837 0 (reference)",[1],1 fold
same,"IL-4 release, REGN1979 EC50 (M), fixed REGN5837 0",[1],9.99e-10 M
same,"IL-4 release, REGN1979 EC50 (M), fixed REGN5837 1.0 X 10^-7",[1],1.66e-11 M
same,"IL-4 release, REGN1979 EC50 (M), fixed REGN5837 1.67 X 10^-8",[1],1.53e-11 M
same,"IL-4 release, REGN1979 EC50 (M), fixed REGN5837 2.78 X 10^-9",[1],1.28e-11 M
same,"IL-4 release, REGN1979 EC50 (M), fixed REGN5837 4.63 X 10^-10",[1],1.89e-11 M
same,"IL-4 release, REGN1979 EC50 (M), fixed REGN5837 7.72 X 10^-11",[1],3.77e-10 M
same,"IL-6 release, Fold change (CKR), fixed REGN5837 0 (reference)",[1],1 fold
same,"IL-6 release, REGN1979 EC50 (M), fixed REGN5837 0",[1],7.42e-11 M
same,"IL-6 release, REGN1979 EC50 (M), fixed REGN5837 1.0 X 10^-7",[1],5.13e-11 M
same,"IL-6 release, REGN1979 EC50 (M), fixed REGN5837 1.67 X 10^-8",[1],7.89e-12 M
same,"IL-6 release, REGN1979 EC50 (M), fixed REGN5837 2.78 X 10^-9",[1],2.68e-11 M
same,"IL-6 release, REGN1979 EC50 (M), fixed REGN5837 4.63 X 10^-10",[1],1.45e-12 M
same,"IL-6 release, REGN1979 EC50 (M), fixed REGN5837 7.72 X 10^-11",[1],1.61e-10 M
same,"IL-10 release, Fold change (CKR), fixed REGN5837 0 (reference)",[1],1 fold
same,"IL-10 release, REGN1979 EC50 (M), fixed REGN5837 0",[1],9.95e-11 M
same,"IL-10 release, REGN1979 EC50 (M), fixed REGN5837 1.0 X 10^-7",[1],3.54e-11 M
same,"IL-10 release, REGN1979 EC50 (M), fixed REGN5837 1.67 X 10^-8",[1],1.04e-10 M
same,"IL-10 release, REGN1979 EC50 (M), fixed REGN5837 2.78 X 10^-9",[1],2.43e-10 M
same,"IL-10 release, REGN1979 EC50 (M), fixed REGN5837 4.63 X 10^-10",[1],5.29e-11 M
same,"IL-10 release, REGN1979 EC50 (M), fixed REGN5837 7.72 X 10^-11",[1],3.34e-11 M
same,"IL-17A release, Fold change (CKR), fixed REGN5837 0 (reference)",[1],1 fold
same,"IL-17A release, REGN1979 EC50 (M), fixed REGN5837 0",[1],2.5e-10 M
same,"IL-17A release, REGN1979 EC50 (M), fixed REGN5837 1.0 X 10^-7",[1],3.22e-10 M
same,"IL-17A release, REGN1979 EC50 (M), fixed REGN5837 1.67 X 10^-8",[1],1.11e-10 M
same,"IL-17A release, REGN1979 EC50 (M), fixed REGN5837 2.78 X 10^-9",[1],7.6e-11 M
same,"IL-17A release, REGN1979 EC50 (M), fixed REGN5837 4.63 X 10^-10",[1],4.63e-10 M
same,"IL-17A release, REGN1979 EC50 (M), fixed REGN5837 7.72 X 10^-11",[1],1.86e-10 M
same,"TNF alpha release, Fold change (CKR), fixed REGN5837 0 (reference)",[1],1 fold
same,"TNF alpha release, REGN1979 EC50 (M), fixed REGN5837 0",[1],2.43e-10 M
same,"TNF alpha release, REGN1979 EC50 (M), fixed REGN5837 1.0 X 10^-7",[1],5.03e-12 M
same,"TNF alpha release, REGN1979 EC50 (M), fixed REGN5837 1.67 X 10^-8",[1],8.69e-13 M
same,"TNF alpha release, REGN1979 EC50 (M), fixed REGN5837 2.78 X 10^-9",[1],3.45e-12 M
same,"TNF alpha release, REGN1979 EC50 (M), fixed REGN5837 7.72 X 10^-11",[1],1.62e-10 M
same,"CD4+ T cell activation (% CD25+), Fold Change (EC50), fixed REGN5837 0 (reference)",[2],1 fold
same,"CD4+ T cell activation (% CD25+), REGN1979 EC50 (M), fixed REGN5837 0",[2],9.17e-13 M
same,"CD4+ T cell activation (% CD25+), REGN1979 EC50 (M), fixed REGN5837 1.00 × 10^-7",[2],1.16e-13 M
same,"CD4+ T cell activation (% CD25+), REGN1979 EC50 (M), fixed REGN5837 1.67 × 10^-8",[2],8.7e-14 M
same,"CD4+ T cell activation (% CD25+), REGN1979 EC50 (M), fixed REGN5837 4.63 × 10^-10",[2],1.46e-13 M
same,"CD4+ T cell activation (% CD25+), REGN1979 EC50 (M), fixed REGN5837 7.72 × 10^-11",[2],2.08e-13 M
same,"CD4+ T-cell Proliferation, Fold Change (EC50), fixed REGN5837 0 (reference)",[2],1 fold
same,"CD4+ T-cell Proliferation, REGN1979 EC50 (M), fixed REGN5837 0",[2],1.63e-11 M
same,"CD4+ T-cell Proliferation, REGN1979 EC50 (M), fixed REGN5837 1.00 × 10^-7",[2],8.42e-13 M
same,"CD4+ T-cell Proliferation, REGN1979 EC50 (M), fixed REGN5837 1.67 × 10^-8",[2],9.31e-13 M
same,"CD4+ T-cell Proliferation, REGN1979 EC50 (M), fixed REGN5837 2.78 × 10^-9",[2],4.25e-13 M
same,"CD4+ T-cell Proliferation, REGN1979 EC50 (M), fixed REGN5837 4.63 × 10^-10",[2],1.25e-12 M
same,"CD4+ T-cell Proliferation, REGN1979 EC50 (M), fixed REGN5837 7.72 × 10^-11",[2],2.36e-12 M
same,"CD8+ T cell activation (% CD25+), Fold Change (EC50), fixed REGN5837 0 (reference)",[2],1 fold
same,"CD8+ T cell activation (% CD25+), REGN1979 EC50 (M), fixed REGN5837 0",[2],3.38e-12 M
same,"CD8+ T cell activation (% CD25+), REGN1979 EC50 (M), fixed REGN5837 1.00 × 10^-7",[2],6.32e-13 M
same,"CD8+ T cell activation (% CD25+), REGN1979 EC50 (M), fixed REGN5837 1.67 × 10^-8",[2],5.88e-13 M
same,"CD8+ T cell activation (% CD25+), REGN1979 EC50 (M), fixed REGN5837 2.78 × 10^-9",[2],2.68e-13 M
same,"CD8+ T cell activation (% CD25+), REGN1979 EC50 (M), fixed REGN5837 4.63 × 10^-10",[2],9.01e-13 M
same,"CD8+ T cell activation (% CD25+), REGN1979 EC50 (M), fixed REGN5837 7.72 × 10^-11",[2],1.64e-12 M
same,"CD8+ T-cell Proliferation, Fold Change (EC50), fixed REGN5837 0 (reference)",[2],1 fold
same,"CD8+ T-cell Proliferation, REGN1979 EC50 (M), fixed REGN5837 0",[2],1.97e-11 M
same,"CD8+ T-cell Proliferation, REGN1979 EC50 (M), fixed REGN5837 1.00 × 10^-7",[2],1.55e-12 M
same,"CD8+ T-cell Proliferation, REGN1979 EC50 (M), fixed REGN5837 1.67 × 10^-8",[2],8.31e-13 M
same,"CD8+ T-cell Proliferation, REGN1979 EC50 (M), fixed REGN5837 2.78 × 10^-9",[2],7.09e-13 M
same,"CD8+ T-cell Proliferation, REGN1979 EC50 (M), fixed REGN5837 4.63 × 10^-10",[2],3.43e-12 M
same,"CD8+ T-cell Proliferation, REGN1979 EC50 (M), fixed REGN5837 7.72 × 10^-11",[2],8.36e-12 M
same,"WSU-DLCL2 Cell Killing, Fold Change (EC50), fixed REGN5837 0 (reference)",[2],1 fold
same,"WSU-DLCL2 Cell Killing, REGN1979 EC50 (M), fixed REGN5837 0",[2],2.89e-12 M
same,"WSU-DLCL2 Cell Killing, REGN1979 EC50 (M), fixed REGN5837 1.00 × 10^-7",[2],8.53e-14 M
same,"WSU-DLCL2 Cell Killing, REGN1979 EC50 (M), fixed REGN5837 1.67 × 10^-8",[2],1.85e-13 M
same,"WSU-DLCL2 Cell Killing, REGN1979 EC50 (M), fixed REGN5837 2.78 × 10^-9",[2],3.98e-13 M
same,"WSU-DLCL2 Cell Killing, REGN1979 EC50 (M), fixed REGN5837 4.63 × 10^-10",[2],3.46e-13 M
same,"WSU-DLCL2 Cell Killing, REGN1979 EC50 (M), fixed REGN5837 7.72 × 10^-11",[2],8.37e-13 M
B2,EC50,human CD22,9.76 nM
